# Test results reported in patent US8202696B2, “Means for use in treating diseases correlated with or caused by non-physiological levels of microtubule-associated PP2Ac” (Max-Planck-Gessellschaft zur Forderung der Wissenschaften …, priority 2002, dated 2012).
# “Also recorded” adds a separate entry of the source.
# B1: MID1: RING-finger protein that interacts with the α4 subunit of microtubule associated PP2Ac; overexpressed from cDNA (protein)
# chain: METLESELTCPICLELFEDPLLLPCAHSLCFNCAHRILVSHCATNESVESITAFQCPTCRHVITLSQRGLDGLKRNVTLQNIIDRFQKASVSGPNSPSETRRERAFDANTMTSAEKVLCQFCDQDPAQDAVKTCVTCEVSYCDECLKATHPNKKPFTGHRLIEPIPDSHIRGLMCLEHEDEKVNMYCVTDDQLICALCKLVGRHRDHQVAALSERYDKLKQNLESNLTNLIKRNTELETLLAKLIQTCQHVEVNASRQEAKLTEECDLLIEIIQQRRQIIGTKIKEGKVMRLRKLAQQIANCKQCIERSASLISQAEHSLKENDHARFLQTAKNITERVSMATASSQVLIPEINLNDTFDTFALDFSREKKLLECLDYLTAPNPPTIREELCTASYDTITVHWTSDDEFSVVSYELQYTIFTGQANVVSLCNSADSWMIVPNIKQNHYTVHGLQSGTKYIFMVKAINQAGSRSSEPGKLKTNSQPFKLDPKSAHRKLKVSHDNLTVERDESSSKKSHTPERFTSQGSYGVAGNVFIDSGRHYWEVVISGSTWYAIGLAYKSAPKHEWIGKNSASWALCRCNNNWVVRHNSKEIPIEPAPHLRRVGILLDYDNGSIAFYDALNSIHLYTFDVAFAQPVCPTFTVWNKCLTIITGLPIPDHLDCTEQLP
# modifications: left off: large carriers
# notes: overexpressed from cDNA
# B2: α4: regulatory subunit of PP2A encoded by human IGBP1, overexpressed (protein, UniProt P78318 2-339, looked up)
# Immunoglobulin-binding …: AAEDELQLPRLPELFETGRQLLDEVEVATEPAGSRIVQEKVFKGLDLLEKAAEMLSQLDLFSRNEDLEEIASTDLKYLLVPAFQGALTMKQVNPSKRLDHLQRAREHFINYLTQCHCYHVAEFELPKTMNNSAENHTANSSMAYPSLVAMASQRQAKIQRYKQKKELEHRLSAMKSAVESGQADDERVREYYLLHLQRWIDISLEEIESIDQEIKILRERDSSREASTSNSSRQERPPVKPFILTRNMAQAKVFGAGYPSLPTMTVSDWYEQHRKYGALPDQGIAKAAPEEFRKAAQQQEEQEEKEEEDDEQTLHRAREWDDWKDTHPRGYGNRQNMG
# modifications: V5 tag
# notes: regulatory subunit of PP2A encoded by human IGBP1, overexpressed
# Columns and labels:
# Assay type in all cases: cell-based
# [1] = test system: Gli3; assay: Localization of GFP-GLI3 in cultured U373MG cells; details: 24 hours after transfection, 100 cells counted
# Method: COS7-HELA- and U373MG-cells were transfected using PolyFect Transfection Reagent (Qiagen, cat. no. 301107) according to the manufacturer's instructions. Gli3 cDNA was cloned into pEGFP-C1 and pEGFP-N3 vectors (Clontech) respectively. 100 transfected cells per experiment (Gli3-GFP, GFP-Gli3, Gli3-GFP+myc-MID1, GFP-Gli3+myc-MID1, Gli3-GFP+myc-BBox1, GFP-Gli3+myc-BBox1) were counted and analysed for Gli3 localization. Experiments were repeated twice. […] PCMV-Tag3 vector from Stratagene was used for myc-MID1 and myc-BBox1 overexpression.
# [2] = test system: PP2A; assay: Cytosolic PP2A in 293 cells expressing MID1-V5, Western blot; details: 293 cells expressing MID1-V5 versus control cells
# Method: Immunoprecipitation, western blotting and immunofluorescence. For COS7 cells, we lysed in IP1 buffer 8×10^6 cells transfected with pBudCE4 vector carrying the respective cDNAs. After preclearing the lysate with 50 μl protein A-agarose (slurry), we incubated supernatants with 2 μg anti-V5 overnight at 4° C. and then for 2 h with 75 μl (slurry) protein A-agarose. After three washes in IP1 buffer, we eluted the proteins with 1× Laemmli buffer at 95° C. MID1-V5 expression was optimal 48 h after doxycyclin removal from 293 tet-off cell lines. We then lysed cells in IP1 buffer and carried out immunoprecipitation with 2 μg anti-V5. We boiled proteins in 1×SDS-PAGE buffer, separated them on 10% and 12% SDS gels, blotted on PVDF membranes (Roche) and blocked and incubated with the respective primary antibody according to the manufacturer's instructions.
# If so, increased MID1 expression should coincide with a decrease of cytosolic PP2A. To test this hypothesis, we analyzed lysates containing equal amounts of protein from 293 cells expressing MID1-V5 (FIG. 4a, lane1) and control cells (FIG. 4a, lane 3) by western blotting with a polyclonal antibody that detects the C subunit of PP2A.
# [3] = test system: PP2A; assay: Ubiquitin-dependent regulation of PP2A in embryonic fibroblasts, Western blot; details: OS-derived cells
# Method: Tissue culture. We obtained embryonic fibroblasts from the Max-Planck Institute for Cell Biology (Ladenburg, Germany) and purchased COS7 cells from the American Type Culture Collection (ATCC). Establishment of an embryonic fibroblast cell line from an OS-affected fetus has been described previously^4. We transfected COS7 cells following the Clontech protocol using LipofectACE. Expression was optimal 24-48 h after transfection. […] We determined integration copy number by Southern blot analysis. […]
# For proteasome inhibition, we incubated embryonic fibroblasts with varying concentrations (10-50 μM) of LLnL (Sigma) for 2 h or with 10 μM of lactacystin (Sigma) for 5 h. […] Protein concentrations were determined with a Bradford assay. […]
# For embryonic fibroblasts, we lysed 8×10^6 cells in IP1 buffer. […] We carried out densitometric quantification using the PCB computer program.
# To obtain direct evidence for ubiquitin-dependent regulation of cytosolic PP2A, we analyzed amounts of cytosolic PP2A in embryonic fibroblasts, previously shown to contain large amounts of endogenous MID1 (ref. 2), after treatment with the proteasome inhibitor LLnL (FIG. 4b).
# [4] = test system: patched gene; assay: Patched-specific semiquantitative RT-PCR of HeLa cells; details: compared to mock-transfected cells
# Method: One of the most important targets of the Gli3 transcription factor is the patched gene. In order to analyse HeLa cells for Gli3 activity after treatment with the different molecules, semiquantitative RT-PCR of cells overexpressing the B-Box1 and the α4 protein was carried out (FIG. 13). HeLa cells have previously been tested for Gli3-, Gli1 (another target of the Gli3 transcription factor) and patched-expression.
# [5] = test system: Gli3; assay: Localization of overexpressed GFP-tagged Gli3 in HeLa cells; details: GFP-tagged Gli3-overexpressing HeLa cells
# Method: 1×10^5 HELA cells per well of a 6-well plate were transfected with Qiagen Polyfect transfection reagent according to the manufacturer's instructions. The ratio of the amount of DNA to the amount of polyfect transfection reagent was 3 μg DNA/10 μl Polyfect. Constructs used for expression in HELA were the following: GFP-GLI3 (aa 18-1549), GLI3-GFP (aa 1-1522), MYC-GLI3 (aa 18-1596), FLAG-GLI3 (aa18-1596), MYC-B-BOX1 (aa 110-167 of the MID1 protein), ALPHA4-V5 (aa 1-339). 24 h after transfection immunofluorescence was performed. GFP-constructs were treated as described in Schweiger et al., 1999. Immunofluorescence with MYC-tagged and FLAG-tagged constructs was done according to Trockenbacher et al., 2001. FLAG-tagged constructs were detected with anti-FLAG-antibody diluted 1:500, the secondary antibody FITC-antimouse was diluted 1:1000. For MYC-tagged constructs anti-MYC-antibody 1:300 and CY3-antirabbit 1:1000 were used. […]
# Overexpressed Gli3 is predominantly localized in the nucleus (FIG. 10, top left).
Molecule,GFP-GLI3 localization [1],Cytosolic phosphatase 2A level [2],PP2Ac amount after transfection [3],patched message [4],Gli3 localization [5]
B1,No change,downregulated,normalizes the amount of PP2Ac,–,–
B2,–,–,–,increased amount of PCR-product; also recorded: increase of the patched message,significant release of GFP-Gli3 to the nucleus
